Source: publication doi:10.1101/2024.10.03.616038 (2024)

B1: BD55-5840 (IgG1) (antibody, V domains shown)
VH: VQLAQSGSELRKPGASVKVSCDTSGHSFTSNAIHWVRQAPGQGLEWMGWINTDTGTPTYAQGFTGRFVFSLDTSARTAYLQISSLKADDTAVFYCARERDYSDYFFDYWGQGTLVTVSS
VL: EVVMTQSPASLSVSPGERATLSCRARASLGISTDLAWYQQRPGQAPRLLIYGASTRATGIPARFSGSGSGTEFTLTISSLQSEDSAVYYCQQYSNWPLTFGGGTKVEIK
B2: REGN10987 (IgG1) (antibody, V domains shown)
VH: QVQLVESGGGVVQPGRSLRLSCAASGFTFSNYAMYWVRQAPGKGLEWVAVISYDGSNKYYADSVKGRFTISRDNSKNTLYLQMNSLRTEDTAVYYCASGSDYGDYLLVYWGQGTLVTVSS
VL: QSALTQPASVSGSPGQSITISCTGTSSDVGGYNYVSWYQQHPGKAPKLMIYDVSKRPSGVSNRFSGSKSGNTASLTISGLQSEDEADYYCNSLTSISTWVFGGGTKLTVL
B3: DXP-604 (IgG1) (antibody, V domains shown)
VH: EVQLVESGGGLIQPGGSLRLSCAASGIIVSSNYMTWVRQAPGKGLEWVSVIYSGGSTFYADSVKGRFTISRDNSKNTLYLQMSSLRAEDTAVYYCARDLGPYGMDVWGQGTTVTVSS
VL: DIQLTQSPSFLSASVGDRVTITCRASQGISSDLAWYQQKPGKAPNLLIYAASTLQSGVPSRFSGSGSGTEFTLTISSLQPEDFATYYCQQLNSDLYTFGQGTKLEIK
B4: LY-CoV1404 (IgG1) (antibody, V domains shown)
VH: QITLKESGPTLVKPTQTLTLTCTFSGFSLSISGVGVGWLRQPPGKALEWLALIYWDDDKRYSPSLKSRLTISKDTSKNQVVLKMTNIDPVDTATYYCAHHSISTIFDHWGQGTLVTVSS
VL: QSALTQPASVSGSPGQSITISCTATSSDVGDYNYVSWYQQHPGKAPKLMIFEVSDRPSGISNRFSGSKSGNTASLTISGLQAEDEADYYCSSYTTSSAVFGGGTKLTVL
B5: S2K146 (IgG1) (antibody, V domains shown)
VH: QVQLVESGGVVVQPGGSLRLSCAASGFTFHDHTMHWVRQAPGKGLEWVSLITWNGGTIHYSDSVKGRFTISRDNSKNSLYLQMNSLRTEDTALYYCAKDLGRGGWYLPSDAWGQGTLVTVSS
VL: not shown

target: SARS-CoV-2 Spike RBD, original (Wuhan) strain (SARS-CoV-2, UniProt P0DTC2); experiment: SPR

Row | Binder | Kd [pM]
1 | B1 | 75.9
2 | B2 | 14500
3 | B3 | 214
4 | B4 | 977
5 | B5 | 45.7
